Test results reported in patent US8487082B2, “Synthetic scFv analogue to the 6313/G2 (anti angiotensin II type 1 receptor) monoclonal antibody variable regions” (Queen Mary & Westfield College, priority 2008, dated 2013).

Tests used:
Experiment in all cases: Cell viability assay (XTT)
Format in all cases: cell-based
MCF-7 cells = settings: MCF-7, 100 nmol angiotensin II per L, XTT, 48 hours
Procedure: (§1) MCF-7, T47D and MDA-MB-231 breast cancer cells were obtained from The American Tissue Culture Collection (LGC Promochem, Teddington, UK). Rat aortic smooth muscle cells (RASMC) were developed from primary culture (Barker et al., 1996). MCF-7 cells were maintained in Minimal Essential Medium (MEM), T47D and MDA-MB-231 cells in RPMI 1640 medium, and RASMC were maintained in Dulbecco's Modified Eagle's Medium (DMEM). All media were supplemented with 2 mM L-glutamine, 10% fetal bovine serum (FBS), 50 U/ml penicillin and 0.05 mg/ml streptomycin. Cells were maintained at 37° C. in a humidified atmosphere ([…], 5% CO2).
(§2) Confluent cell monolayers were removed from tissue culture flasks using trypsin/EDTA. Cells (15×10^3 per well) were seeded into 96 well tissue culture plates containing the appropriate medium for each cell line. […] Cell viability was assessed by the ability of metabolically active cells to reduce 2,3-bis[2-Methoxy-4-nitro-5-sulphophenyl]-2H-tetrazolium-5-carboxyanilide inner salt (XTT) to the coloured formazan product. Absorbance was measured using a Multiskan Ascent microplate reader (Thermo Labsystem, Helsinki, Finland) at a wavelength of 450 nm and a reference wavelength of 630 nm. Each measurement was performed in triplicate. IC50s were calculated using a non-linear regression formula using GraphPad Prism v4.0 software (GraphPad Software Inc, San Diego Calif., USA).

MDA-MB-231 cells = settings: MDA-MB-231, 100 nmol angiotensin II per L, XTT, 48 hours
Procedure: as §1, §2

T47D cells = settings: 100 nmol angiotensin II per L, XTT, 48 hours
Procedure: as §1, §2

B1: R6313/G2: murine scFv analogue of the 6313/G2 anti-AT1 receptor monoclonal antibody variable domains, SEQ ID NO:15 (protein)
scFv: YAAQPAMAQVKLQQSGPELEKPGASVKISCKASGYSFTGYNMNWVKQSNGKSLEWIGNIDPYYGGTTYNQKFKGKATLTVDKSSSTAYMQLKSLTSEDSAVYYCAREVDYWGQGTTVTVSSGGGGSGGGGSGGGGSDIELTQSPASLAVSLGQRATISYRASKSVSTSGYSYMHWNQQKPGQPPRLLIYLVSNLESGVPARFSGSGSGTDFTLNIHPVEEEDAATYYCQHIRELTRSEGTKLEIKRAAAGAPVPY
modifications: 12D
MCF-7 cells
  Threshold value for inhibition of cell survival (P<0.05 or better): 0.05 µM
MDA-MB-231 cells
  Threshold value for inhibition of cell survival (P<0.05 or better): 0.05 µM
T47D cells
  Threshold value for inhibition of cell survival (P<0.05 or better): 1.25 µM
T47D cells; read-out: IC50, inhibition of cell survival
  IC50: 2800 nM
